Numbering of substitutions follows the chain as printed. Numbers in names are those of the source.
Legend:
[1] = biological target: T1, FcRn (analyte in the Biacore T200 study) (human, UniProt P55899 24-297; P61769 21-119, limits assumed); test: SPR Biacore T200, antibody amine-coupled to CM5, FcRn analyte, 1:1 model; pH not stated
T1 construct: also called human FcRn
Experimental: (§1) Antibodies were immobilized onto a Series S CM5 sensor chip surface using standard amine coupling chemistry and analyte (FcRn) flowed over the surface. A 2-fold dilution range was selected from 50-0.01 nM FcRn. The association phase of FcRn analyte was monitored for 450 seconds, and dissociation was initially measured for either 250 or 2500 seconds, at 40 μl/min Fc1 was a reference channel and was subtracted from other flow cells to correct for non-specific binding. […] Kinetic values are based on a 1:1 binding model (Table 5).

[2] = biological target: T2, recombinant human FcRn (Sino Biological Inc. Cat. No. CT009-H08H) (human, UniProt P55899 24-297; P61769 21-119); test: competition ELISA, pH 7.4: test IgG4 (stable NS0) titrated against fixed biotinylated murine parent antibody on recombinant human FcRn; streptavidin-HRP/TMB, OD450 [bottom panel]
T2 construct: also called immobilized FcRn
T2 sequence (P55899 24-297 limits assumed, chain 1 of 2): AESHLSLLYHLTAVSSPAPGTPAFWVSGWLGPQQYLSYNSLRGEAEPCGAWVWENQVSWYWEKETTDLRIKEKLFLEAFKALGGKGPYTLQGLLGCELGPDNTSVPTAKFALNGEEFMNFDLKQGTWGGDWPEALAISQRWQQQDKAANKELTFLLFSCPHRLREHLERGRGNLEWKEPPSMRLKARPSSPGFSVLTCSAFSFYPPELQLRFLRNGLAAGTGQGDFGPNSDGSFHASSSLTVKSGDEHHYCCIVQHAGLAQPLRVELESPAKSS
T2 sequence (P61769 21-119 limits assumed, chain 2 of 2): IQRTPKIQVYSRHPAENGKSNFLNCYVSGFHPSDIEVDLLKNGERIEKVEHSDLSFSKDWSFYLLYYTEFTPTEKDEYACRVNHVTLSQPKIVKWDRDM
Experimental: (§2) The IgG4 antibodies were tested for antigen binding in a competition ELISA at pH 6.0 and pH 7.4. A Nunc Immuno MaxiSorp 96 well flat bottom microtitre plate (Fisher, cat. no. DIS-971-030J) was pre-coated with 1 μg/ml of an FcRn antibody specific for an IgG-binding epitope distinct from the albumin-binding region overnight at pH 7.4. The following day, 1 μg/ml recombinant human FcRn (Sino Biological Inc. cat. no. CT009-H08H) diluted in PBS pH 7.4 was added to the wells and incubated for 1 hour at 37° C. After washing the plates 3× with PBST pH 7.4, the plates were blocked with PBSM pH 7.4 for 1 hour at 37° C. From this point onwards, all wash and incubation steps were performed at the chosen assay pH (pH 6.0 or 7.4). […] The reaction was stopped with 3 M HCl, absorbance read at 450 nm on a Dynex Technologies MRX TC II plate reader and the binding curves plotted.
(§3) NS0 produced humanized affinity matured IgGs were used in all assays other than G50_C10/Vκ3), which was purified from transiently expressing HEK cells.

[3] = biological target: T3, monomeric His-tagged hFcRn (human, UniProt P55899 24-297; P61769 21-119, limits assumed); test: SPR Biacore 3000, antibody amine-coupled to CM5, His-tagged hFcRn analyte, pH 6.0, 25 C, 1:1 Langmuir
T3 construct: also called human FcRn; not shown: His tag
T3 sequence (P55899 24-297 limits assumed, chain 1 of 2): as the sequence (P55899 24-297 limits assumed, chain 1 of 2) above
T3 sequence (P61769 21-119 limits assumed, chain 2 of 2): as the sequence (P61769 21-119 limits assumed, chain 2 of 2) above
Experimental: (§4) The coupling was performed by injecting 2 μg/ml of each protein into 10 mM sodium acetate, pH 4.5 (GE Healthcare), using the amine coupling kit (GE Healthcare). HBS-P buffer pH 7.4 (0.01 M HEPES, 0.15 M NaCl, 0.005% surfactant P20) or phosphate buffer pH 6.0 (67 mM phosphate buffer, 0.15 M NaCl, 0.005% Tween 20) were used as running buffer and dilution buffer. […] All SPR experiments were conducted at 25° C. with a flow rate of 40 μl/min Binding data were zero-adjusted, and the reference cell value subtracted. The Langmuir 1:1 ligand binding model provided by the BIAevaluation software (version 4.1) was used to determine the binding kinetics. The closeness of the fit is described by the statistical value χ².

[4] = biological target: T2, recombinant human FcRn (Sino Biological …); test: competition ELISA, pH 6.0: test IgG4 (stable NS0) titrated against fixed biotinylated murine parent antibody on recombinant human FcRn; streptavidin-HRP/TMB, OD450 [bottom panel]
Experimental: as §2, §3

[5] = biological target: T2, recombinant human FcRn (Sino Biological …); test: competition ELISA, pH 6.0: test IgG4 (stable NS0) titrated against fixed biotinylated murine parent antibody on recombinant human FcRn; streptavidin-HRP/TMB, OD450 [top panel]
Experimental: as §2, §3

[6] = biological target: T1, FcRn (analyte in the Biacore T200 study); test: SPR Biacore T200, antibody amine-coupled to CM5, FcRn analyte, 1:1 model; chip with the three best variants (repeat run, dissociation 4500 s per paragraph 156); pH not stated; repeat run of the three best variants, dissociation 4500 s
Experimental: as §1

[7] = biological target: T2, recombinant human FcRn (Sino Biological …); test: competition ELISA, pH 7.4: test IgG4 (stable NS0) titrated against fixed biotinylated murine parent antibody on recombinant human FcRn; streptavidin-HRP/TMB, OD450 [top panel]
Experimental: as §2, §3

[8] = biological target: T3, monomeric His-tagged hFcRn; test: SPR Biacore 3000, antibody amine-coupled to CM5, His-tagged hFcRn analyte, pH 7.4, 25 C, 1:1 Langmuir
Experimental: as §4
The kinetic rate constants were obtained using a simple first-order (1:1) Langmuir bimolecular interaction model. The kinetic values represent the average of duplicates. The χ² (chi-square) values represent the fit to the binding model used.

[9] = biological target: T2, recombinant human FcRn (Sino Biological …); test: competition ELISA, pH 7.4: test IgG4 (transient HEK) titrated against fixed biotinylated murine parent antibody on recombinant human FcRn; streptavidin-HRP/TMB, OD450
Experimental: as §2

[10] = biological target: T2, recombinant human FcRn (Sino Biological …); test: competition ELISA, pH 6.0; competitor biotinylated parent murine antibody; captured recombinant human FcRn; HEK-expressed IgG4
Experimental: as §2

[11] = biological target: T2, recombinant human FcRn (Sino Biological …); test: competition ELISA, pH 7.4; competitor biotinylated parent murine antibody; captured recombinant human FcRn; HEK-expressed IgG4
Experimental: as §2

[12] = biological target: T1, FcRn (analyte in the Biacore T200 study); test: SPR Biacore T200; KD of humanized parent VH1/Vκ1 divided by KD of the test antibody on the same chip
Experimental: as §1

[13] = biological target: T2, recombinant human FcRn (Sino Biological …); test: competition ELISA, pH 7.4; competitor biotinylated parent murine antibody; captured recombinant human FcRn; NS0-expressed IgG4
Experimental: as §2, §3

[14] = biological target: T2, recombinant human FcRn (Sino Biological …); test: competition ELISA, pH 6.0; competitor biotinylated parent murine antibody; captured recombinant human FcRn; NS0-expressed IgG4
Experimental: as §2, §3

[15] = biological target: T2, recombinant human FcRn (Sino Biological …); test: competition ELISA, pH 6.0: test IgG4 (stable NS0) titrated against fixed biotinylated murine parent antibody on recombinant human FcRn; streptavidin-HRP/TMB, OD450 [middle panel]
Experimental: as §2, §3

[16] = biological target: T2, recombinant human FcRn (Sino Biological …); test: competition ELISA, pH 7.4: test IgG4 (stable NS0) titrated against fixed biotinylated murine parent antibody on recombinant human FcRn; streptavidin-HRP/TMB, OD450 [middle panel]
Experimental: as §2, §3

[17] = biological target: T1, FcRn (analyte in the Biacore T200 study); test: SPR Biacore T200, antibody amine-coupled to CM5, FcRn analyte, 1:1 model; chip with the three best variants (repeat run, dissociation 4500 s per paragraph 156); pH not stated
Experimental: as §1

T1 sequence (P55899 24-297 limits assumed, chain 1 of 2): as the sequence (P55899 24-297 limits assumed, chain 1 of 2) above
T1 sequence (P61769 21-119 limits assumed, chain 2 of 2): as the sequence (P61769 21-119 limits assumed, chain 2 of 2) above

B1: G49_H9.3/Vκ3 (antibody, V domains shown)
VH: EVQLVESGGGLVKPGGSLKLSCAASGFTFSDYGMHWVRQAPGKGLEWVAYISSGSSTIYYADTVKGRFTISRDNAKNTLYLQMNSLRAEDTAMYYCARFDSLSTVGDYWGQGTSVTVSS
VL: DIVMTQSPDSLSASVGDRVTITCKASQSVSNDVAWYQQKPGQPPKLLIYYASNRYTGVPDRFSGSGYGTDFTLTISSLQAEDVAVYFCQQDYSSLTFGQGTKLEIK
notes: Bivalent IgG4 with S241P, human kappa; also called SYNT002-21; G49_H9.3 VH1
Which Kd [1] does the source give for B1 here?
The Kd was 1.11 nM.

What about the “IC50 (read off the curve)” value [2] of the same binder?
Its value is about 0.5 µg/mL.

And the Kd [3]?
The Kd was 1.7 nM.

And the “IC50 (read off the curve)” value [4]?
The value was about 0.2 µg/mL.

B2: G47_B10/Vκ3 (antibody, V domains shown)
VH: B1 VH with F99A, D100E, L102T, S103T
VL: B1 VL
notes: Bivalent IgG4 with S241P, human kappa; also called SYNT002-8; G47_B10VH1_Vκ3
Which results are given for B2?
IC50 (read off the curve) [5]: ~0.3 µg/mL; Kd [1]: 0.33 nM; Kd [6]: 0.24 nM; Kd [3]: 0.6 nM; IC50 (read off the curve) [7]: ~0.5 µg/mL; Kd [8]: 4 nM; IC50 (read off the curve) [9]: ~0.2 µg/mL

B3: G47_H6/Vκ3 (antibody, IgG4, V domains shown)
VH: B1 VH with D100S
VL: B1 VL
notes: IgG4 with S241P, human kappa; also called G47_H6 VH1
What does the source list for B3?
Kd [1]: 2.09 nM; koff [1]: 0.000814 s⁻¹; kon [1]: 389000 M⁻¹ s⁻¹; Average relative IC50 (relative to humanized parent) [10]: 0.8; Average relative IC50 (relative to humanized parent) [11]: 0.7; Fold difference in KD [12]: 1.2 fold; Average relative IC50 (relative to humanized parent) [13]: 0.89; Average relative IC50 (relative to humanized parent) [14]: 0.84

B4: G49_H9.5/Vκ3 (antibody, V domains shown)
VH: B1 VH with F99L, D100E, S101A, L102V, T104A
VL: B1 VL
notes: Bivalent IgG4 with S241P, human kappa; also called G49_H9.5 VH1
Which Kd [1] does the source give for B4 here?
Its Kd is 1.21 nM.

What about the “Average relative IC50 (relative to humanized parent)” value (shortened to “Average relative IC50”) [10] of the same binder?
Its value is 0.8.

And the “Average relative IC50” value [13]?
Its value is 0.87.

What about the “Average relative IC50” value [14] of the same binder?
The value was 0.8.

B5: G52_G9/Vκ3 (antibody, V domains shown)
VH: B1 VH with S101T, L102P
VL: B1 VL
notes: Bivalent IgG4 with S241P, human kappa; also called G52_G9 VH1
B5 was tested. Which Kd [1] did it give?
The Kd was 1.99 nM.

B6: G15_C3/Vκ3 (antibody, V domains shown)
VH: B1 VH with F99G, D100E, L102T, S103T
VL: B1 VL
notes: Bivalent IgG4 with S241P, human kappa; also called SYNT002-3; G15_C3 VH1
What does the source list for B6?
IC50 (read off the curve) [15]: ~0.3 µg/mL; IC50 (read off the curve) [16]: ~0.5 µg/mL; Kd [3]: 0.7 nM; Kd [17]: 0.39 nM; Kd [8]: 7.8 nM

B7: G54_D11/Vκ3 (antibody, V domains shown)
VH: B1 VH with S101T, L102P, S103A
VL: B1 VL
notes: Bivalent IgG4 with S241P, human kappa; also called SYNT002-17; G54_D11 VH1
For B7, which Kd [1] is on record?
The Kd was 3.71 nM.

What about the “IC50 (read off the curve)” value [4] of the same binder?
Its value is about 0.3 µg/mL.

And the Kd [8]?
Its Kd is 34 nM.

Reference: patent publication US20190135915A1 (SYNTIMMUNE, published 2019)
